# Measurements taken from the supplement of paper PMC9112550, “Optimization of the antimicrobial peptide Bac7 by deep mutational scanning” (BMC Biology, 2022).
# Tested on: Escherichia coli TOP10
# Test: shrunken log2 fold change of peptide-encoding DNA abundance (4.5 h post-induction vs induction); higher = less antimicrobial activity (less host growth inhibition)
# Conditions: time post-induction: 4.5 h; library: site-saturation at positions 5, 18, 19, 20
# 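Note: peptides expressed intracellularly from a pBAD plasmid library in pooled LB shake-flask culture, induced with 0.3% L-arabinose, DNA abundance read by NGS, three biological replicates, DESeq2 with apeglm shrinkage.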
row,Sequence,shrunken log2 fold change
1,RRIRDRPPRLPRPRPRPISAPRP,0.0787
2,RRIRYRPPRLPRPRPRPWHLPRP,-0.0873
3,RRIRGRPPRLPRPRPRPKCWPRP,1.09
4,RRIRKRPPRLPRPRPRPTTEPRP,0.579
5,RRIRERPPRLPRPRPRPSHGPRP,-0.263
6,RRIRMRPPRLPRPRPRPRNAPRP,2.06
7,RRIRCRPPRLPRPRPRPWADPRP,-0.0237
8,RRIRHRPPRLPRPRPRPSNAPRP,-0.38
9,RRIRVRPPRLPRPRPRPDENPRP,-0.0618
10,RRIRKRPPRLPRPRPRPCNQPRP,0.0585
11,RRIRYRPPRLPRPRPRPWYTPRP,-1.81
12,RRIRTRPPRLPRPRPRPIVDPRP,0.0147
13,RRIRGRPPRLPRPRPRPVMHPRP,0.575
14,RRIRMRPPRLPRPRPRPVDKPRP,0.0379
15,RRIRDRPPRLPRPRPRPNDPPRP,-0.125
16,RRIRNRPPRLPRPRPRPDSHPRP,-0.0854
17,RRIRIRPPRLPRPRPRPYCKPRP,-0.592
18,RRIRERPPRLPRPRPRPEQAPRP,0.143
19,RRIRDRPPRLPRPRPRPRQQPRP,0.388
20,RRIRIRPPRLPRPRPRPYRHPRP,-0.0614
21,RRIRVRPPRLPRPRPRPAATPRP,0.609
22,RRIRERPPRLPRPRPRPDGTPRP,0.0123
23,RRIRHRPPRLPRPRPRPSQAPRP,-0.142
24,RRIRTRPPRLPRPRPRPYSEPRP,-0.212
25,RRIRARPPRLPRPRPRPQITPRP,0.118

row,Sequence,shrunken log2 fold change
1,RRIRCRPPRLPRPRPRPAWPPRP,0.895
2,RRIRSRPPRLPRPRPRPKKPPRP,0.0165
3,RRIRTRPPRLPRPRPRPFHWPRP,0.036
4,RRIRFRPPRLPRPRPRPVRCPRP,0.308
5,RRIRRRPPRLPRPRPRPECVPRP,0.419
6,RRIRVRPPRLPRPRPRPVCIPRP,-0.0826
7,RRIRQRPPRLPRPRPRPCQHPRP,0.0738
8,RRIRHRPPRLPRPRPRPWIRPRP,-0.0813
9,RRIRIRPPRLPRPRPRPPVPPRP,0.233
10,RRIRFRPPRLPRPRPRPWQMPRP,0.053
11,RRIRNRPPRLPRPRPRPNRQPRP,-0.156
12,RRIRNRPPRLPRPRPRPARVPRP,0.574
13,RRIRWRPPRLPRPRPRPVADPRP,1.07
14,RRIRIRPPRLPRPRPRPVHFPRP,-0.355
15,RRIRQRPPRLPRPRPRPACFPRP,0.315
16,RRIRARPPRLPRPRPRPWLLPRP,0.156
17,RRIRARPPRLPRPRPRPWSIPRP,-0.0906
18,RRIRVRPPRLPRPRPRPPNFPRP,0.0102
19,RRIRHRPPRLPRPRPRPQGWPRP,0.0705
20,RRIRKRPPRLPRPRPRPVKPPRP,0.0508
21,RRIRQRPPRLPRPRPRPLDVPRP,-0.0496
22,RRIRERPPRLPRPRPRPYRWPRP,-0.0887
23,RRIRDRPPRLPRPRPRPVDRPRP,0.358
24,RRIRYRPPRLPRPRPRPGSQPRP,0.0113
25,RRIRTRPPRLPRPRPRPFGNPRP,0.101

row,Sequence,shrunken log2 fold change
1,RRIRHRPPRLPRPRPRPLKIPRP,-0.0842
2,RRIRPRPPRLPRPRPRPVYTPRP,-0.234
3,RRIRIRPPRLPRPRPRPWHGPRP,-0.0996
4,RRIRGRPPRLPRPRPRPWQTPRP,0.174
5,RRIRARPPRLPRPRPRPANFPRP,0.137
6,RRIRERPPRLPRPRPRPRYDPRP,-0.246
7,RRIRMRPPRLPRPRPRPVMIPRP,0.021
8,RRIRNRPPRLPRPRPRPFFLPRP,-0.255
9,RRIRVRPPRLPRPRPRPMTEPRP,0.0198
10,RRIRNRPPRLPRPRPRPATCPRP,-0.00428
11,RRIRHRPPRLPRPRPRPWDTPRP,-0.164
12,RRIRLRPPRLPRPRPRPNHDPRP,-0.333
13,RRIRGRPPRLPRPRPRPFLMPRP,0.364
14,RRIRNRPPRLPRPRPRPIMSPRP,-0.103
15,RRIRTRPPRLPRPRPRPQGGPRP,0.114
16,RRIRERPPRLPRPRPRPYPHPRP,-0.0727
17,RRIRMRPPRLPRPRPRPARRPRP,1.35
18,RRIRNRPPRLPRPRPRPDIAPRP,-0.0447
19,RRIRVRPPRLPRPRPRPIVAPRP,-0.00399
20,RRIRFRPPRLPRPRPRPGHEPRP,-0.196
21,RRIRQRPPRLPRPRPRPMKWPRP,0.273
22,RRIRPRPPRLPRPRPRPRFLPRP,0.146
23,RRIRDRPPRLPRPRPRPMKSPRP,0.0815
24,RRIRLRPPRLPRPRPRPMETPRP,0.483
25,RRIRQRPPRLPRPRPRPREMPRP,0.0554

row,Sequence,shrunken log2 fold change
1,RRIRLRPPRLPRPRPRPPYDPRP,-0.188
2,RRIRTRPPRLPRPRPRPLVEPRP,-0.0326
3,RRIRSRPPRLPRPRPRPIQPPRP,0.117
4,RRIRQRPPRLPRPRPRPMISPRP,-0.0269
5,RRIRVRPPRLPRPRPRPPCNPRP,-0.356
6,RRIRPRPPRLPRPRPRPEANPRP,0.473
7,RRIRKRPPRLPRPRPRPDVKPRP,-0.0302
8,RRIRWRPPRLPRPRPRPWSLPRP,0.0526
9,RRIRSRPPRLPRPRPRPIWSPRP,0.0119
10,RRIRYRPPRLPRPRPRPHHNPRP,-1.28
11,RRIRNRPPRLPRPRPRPRKEPRP,-0.0425
12,RRIRTRPPRLPRPRPRPPIQPRP,0.0675
13,RRIRFRPPRLPRPRPRPMLPPRP,-0.184
14,RRIRARPPRLPRPRPRPIPEPRP,0.0265
15,RRIRIRPPRLPRPRPRPPGAPRP,0.431
16,RRIRARPPRLPRPRPRPDFTPRP,-0.0266
17,RRIRTRPPRLPRPRPRPRQGPRP,0.337
18,RRIRLRPPRLPRPRPRPFDYPRP,-0.974
19,RRIRERPPRLPRPRPRPCKDPRP,-0.117
20,RRIRSRPPRLPRPRPRPAESPRP,-0.04
21,RRIRWRPPRLPRPRPRPIDNPRP,-0.406
22,RRIRARPPRLPRPRPRPPHDPRP,1.02
23,RRIRRRPPRLPRPRPRPCIAPRP,-0.247
24,RRIRARPPRLPRPRPRPAPAPRP,0.922
25,RRIRKRPPRLPRPRPRPMFCPRP,0.0792

row,Sequence,shrunken log2 fold change
1,RRIRVRPPRLPRPRPRPRIMPRP,-0.601
2,RRIRSRPPRLPRPRPRPKFYPRP,-0.371
3,RRIRLRPPRLPRPRPRPCVRPRP,0.0511
4,RRIRVRPPRLPRPRPRPIGRPRP,-0.0725
5,RRIRWRPPRLPRPRPRPCSLPRP,-0.0592
6,RRIRTRPPRLPRPRPRPTSEPRP,-0.126
7,RRIRCRPPRLPRPRPRPHTKPRP,-0.309
8,RRIRFRPPRLPRPRPRPYSIPRP,-0.186
9,RRIRQRPPRLPRPRPRPAGKPRP,0.0246
10,RRIRVRPPRLPRPRPRPAWKPRP,0.106
11,RRIRKRPPRLPRPRPRPGEMPRP,1.62
12,RRIRERPPRLPRPRPRPCICPRP,-0.0733
13,RRIRKRPPRLPRPRPRPWPEPRP,0.0451
14,RRIRKRPPRLPRPRPRPIYQPRP,-0.0246
15,RRIRLRPPRLPRPRPRPTRCPRP,-0.119
16,RRIRIRPPRLPRPRPRPWFAPRP,-0.31
17,RRIRLRPPRLPRPRPRPVVYPRP,-0.058
18,RRIRCRPPRLPRPRPRPFYTPRP,0.235
19,RRIRCRPPRLPRPRPRPCRQPRP,0.0584
20,RRIRIRPPRLPRPRPRPAITPRP,-0.706
21,RRIRTRPPRLPRPRPRPRSCPRP,0.423
22,RRIRMRPPRLPRPRPRPKNNPRP,0.311
23,RRIRPRPPRLPRPRPRPMWHPRP,-0.208
24,RRIRTRPPRLPRPRPRPCDEPRP,-0.0429
25,RRIRMRPPRLPRPRPRPQVVPRP,0.0936

row,Sequence,shrunken log2 fold change
1,RRIRHRPPRLPRPRPRPNLMPRP,0.0972
2,RRIRDRPPRLPRPRPRPHDPPRP,-0.147
3,RRIRNRPPRLPRPRPRPAKYPRP,-0.134
4,RRIRNRPPRLPRPRPRPYDEPRP,-0.0237
5,RRIRVRPPRLPRPRPRPAQSPRP,0.107
6,RRIRFRPPRLPRPRPRPVNYPRP,0.184
7,RRIRTRPPRLPRPRPRPHWFPRP,-0.132
8,RRIRMRPPRLPRPRPRPIHTPRP,-0.0437
9,RRIRIRPPRLPRPRPRPHLCPRP,0.0475
10,RRIRFRPPRLPRPRPRPIQVPRP,-0.228
11,RRIRSRPPRLPRPRPRPCEPPRP,-1.02
12,RRIRDRPPRLPRPRPRPDAEPRP,1.23
13,RRIRPRPPRLPRPRPRPQRLPRP,0.0191
14,RRIRNRPPRLPRPRPRPWLIPRP,-0.0217
15,RRIRGRPPRLPRPRPRPDCQPRP,0.662
16,RRIRQRPPRLPRPRPRPITTPRP,-0.0809
17,RRIRSRPPRLPRPRPRPKICPRP,-0.0675
18,RRIRMRPPRLPRPRPRPWPKPRP,0.543
19,RRIRTRPPRLPRPRPRPWNAPRP,-0.00214
20,RRIRVRPPRLPRPRPRPIHCPRP,0.0605
21,RRIRQRPPRLPRPRPRPCRSPRP,0.00709
22,RRIRYRPPRLPRPRPRPSVDPRP,-0.61
23,RRIRTRPPRLPRPRPRPYGFPRP,-0.315
24,RRIRDRPPRLPRPRPRPVEIPRP,-0.0399
25,RRIRARPPRLPRPRPRPSWRPRP,0.263
